For the data set, the system named is F1*sub RNA substrate (template-directed ligation). In words: fraction ligated after 30 min (ligated reads / total reads); higher = more ligase activity; sequences stand for … in GAGACCGCAACTGAAAAGTTGT…AGTTCTGCACGTAGAAGCAAAAGGC
The settings on record: 42 °C. The gist of the method: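 Ribozyme variants were transcribed with T7 from PCR-amplified oligo-pool templates and gel-purified. Ligated and unligated bands, separated on gel, were reverse transcribed with barcoded primers and sequenced on a MiSeq, with core bases filtered at quality ≥20. Fraction ligated per variant was computed as ligated reads divided by total reads.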
Sequence TATCCTTTCGTAAACACTTTGGATGGGTTGA [3d972] had a fraction ligated of 0.795.
The result for TATCCTTTCGTAAGAACTTTGGATGGGTTGA [3d974] reads 0.797; that for TATCCTTTCGTAAGACACTTGGATGGGTTGA [3d977], 0.76.
The sequence TATCCTTTCGTAAGACACTTTGATGGGTTGA [3d978] yielded a fraction ligated of 0.77.
Consider TATCCTTTCGTAAGACACTTTGGAGGGTTGA [3d980], for which the fraction ligated came out at 0.0203.
The result for TATCCTTTCGTAAGACACTTTGGATGGGTTA [3d982] reads 0.371.
As for TATCCTTTCGTAAGACACTTTGGATGGGTTG [3d983], the fraction ligated stood at 0.766.
The result for TATCCTTTCGTAAGACACTTTGGATGGGTTGA [2d91] reads 0.786; that for TATCCTTTCGTAAGACACTTTGGATGGTTGA [3d981], 0.0298; that for TATCCTTTCGTAAGACACTTTGGTGGGTTGA [3d979], 0.0729.
Next, TATCCTTTCGTAAGACATTTGGATGGGTTGA [3d976]: 0.787; TATCCTTTCGTAAGACCTTTGGATGGGTTGA [3d975]: 0.771; TATCCTTTCGTAAGCACTTTGGATGGGTTGA [3d973]: 0.77.
The result for TATCCTTTCGTAGACACTTTGGATGGGTTGA [3d971] reads 0.766; that for TATCCTTTCTAAGACACTTTGGATGGGTTGA [3d969], 0.796; that for TATCCTTTGTAAGACACTTTGGATGGGTTGA [3d968], 0.772.
For TATCTGTCGTAAGACACTTTGGATGGGTTGA [3d739], the fraction ligated is 0.775.
Next, TATCTTGCGTAAGACACTTTGGATGGGTTGA [3d741]: 0.828; TATCTTGTCGAAGACACTTTGGATGGGTTGA [3d744]: 0.755; TATCTTGTCGTAAACACTTTGGATGGGTTGA [3d746]: 0.76.
The result for TATCTTGTCGTAAGAACTTTGGATGGGTTGA [3d748] reads 0.841; that for TATCTTGTCGTAAGACACTTGGATGGGTTGA [3d751], 0.776.
The result for TATCTTGTCGTAAGACACTTTGATGGGTTGA [3d752] reads 0.763; that for TATCTTGTCGTAAGACACTTTGGAGGGTTGA [3d754], 0.0612; that for TATCTTGTCGTAAGACACTTTGGATGGGTTA [3d756], 0.722.
Regarding TATCTTGTCGTAAGACACTTTGGATGGGTTG [3d757], the fraction ligated amounted to 0.779.
Next, TATCTTGTCGTAAGACACTTTGGATGGGTTGA [2d69]: 0.791; TATCTTGTCGTAAGACACTTTGGATGGTTGA [3d755]: 0.155; TATCTTGTCGTAAGACACTTTGGTGGGTTGA [3d753]: 0.563.
Next, TATCTTGTCGTAAGACATTTGGATGGGTTGA [3d750]: 0.806.
The result for TATCTTGTCGTAAGACCTTTGGATGGGTTGA [3d749] reads 0.757; that for TATCTTGTCGTAAGCACTTTGGATGGGTTGA [3d747], 0.743.
On to TATCTTGTCGTAGACACTTTGGATGGGTTGA [3d745], for which the fraction ligated was 0.819.
The result for TATCTTGTCTAAGACACTTTGGATGGGTTGA [3d743] reads 0.742; that for TATCTTGTGTAAGACACTTTGGATGGGTTGA [3d742], 0.867.
Next, TATCTTTCGTAAGACACTTTGGATGGGTTGA [3d740]: 0.837.
TATTTGTCGTAAGACACTTTGGATGGGTTGA [3d738]: the fraction ligated came to 0.762.
The result for TCACTGTCGTAAGACACTTTGGATGGGTTGA [3d5] reads 0.621.
Sequence TCACTTGCGTAAGACACTTTGGATGGGTTGA [3d7] yielded a fraction ligated of 0.493.
TCACTTGTCGAAGACACTTTGGATGGGTTGA [3d10]: the fraction ligated was 0.748.
The result for TCACTTGTCGTAAACACTTTGGATGGGTTGA [3d12] reads 0.444; that for TCACTTGTCGTAAGAACTTTGGATGGGTTGA [3d14], 0.399.
Next, TCACTTGTCGTAAGACACTTGGATGGGTTGA [3d17]: 0.419; TCACTTGTCGTAAGACACTTTGATGGGTTGA [3d18]: 0.183; TCACTTGTCGTAAGACACTTTGGAGGGTTGA [3d20]: 0.333.
Next, TCACTTGTCGTAAGACACTTTGGATGGGTTA [3d22]: 0.427; TCACTTGTCGTAAGACACTTTGGATGGGTTG [3d23]: 0.797.
Consider TCACTTGTCGTAAGACACTTTGGATGGGTTGA [2d1], for which the fraction ligated was 0.796.
Next, TCACTTGTCGTAAGACACTTTGGATGGTTGA [3d21]: 0.709; TCACTTGTCGTAAGACACTTTGGTGGGTTGA [3d19]: 0.0723; TCACTTGTCGTAAGACATTTGGATGGGTTGA [3d16]: 0.782.
Next, TCACTTGTCGTAAGACCTTTGGATGGGTTGA [3d15]: 0.769; TCACTTGTCGTAAGCACTTTGGATGGGTTGA [3d13]: 0.608; TCACTTGTCGTAGACACTTTGGATGGGTTGA [3d11]: 0.765.
The result for TCACTTGTCTAAGACACTTTGGATGGGTTGA [3d9] reads 0.768.
TCACTTGTGTAAGACACTTTGGATGGGTTGA [3d8] returned a fraction ligated of 0.662.
The result for TCACTTTCGTAAGACACTTTGGATGGGTTGA [3d6] reads 0.145; that for TCATTGTCGTAAGACACTTTGGATGGGTTGA [3d4], 0.164; that for TCCTTGTCGTAAGACACTTTGGATGGGTTGA [3d3], 0.687.
The result for TTACTGTCGTAAGACACTTTGGATGGGTTGA [3d279] reads 0.226; that for TTACTTGCGTAAGACACTTTGGATGGGTTGA [3d281], 0.0196.
The result for TTACTTGTCGAAGACACTTTGGATGGGTTGA [3d284] reads 0.131.
The sequence TTACTTGTCGTAAACACTTTGGATGGGTTGA [3d286] returned a fraction ligated of 0.00498.
The result for TTACTTGTCGTAAGAACTTTGGATGGGTTGA [3d288] reads 0.0626; that for TTACTTGTCGTAAGACACTTGGATGGGTTGA [3d291], 0.305; that for TTACTTGTCGTAAGACACTTTGATGGGTTGA [3d292], 0.0869.
Next, TTACTTGTCGTAAGACACTTTGGAGGGTTGA [3d294]: 0.125.
As to TTACTTGTCGTAAGACACTTTGGATGGGTTA [3d296], the fraction ligated stood at 0.0531.
Take TTACTTGTCGTAAGACACTTTGGATGGGTTG [3d297]: the fraction ligated turned out to be 0.299.
Next, TTACTTGTCGTAAGACACTTTGGATGGGTTGA [2d25]: 0.419; TTACTTGTCGTAAGACACTTTGGATGGTTGA [3d295]: 0.323.
Next, TTACTTGTCGTAAGACACTTTGGTGGGTTGA [3d293]: 0.031.
TTACTTGTCGTAAGACATTTGGATGGGTTGA [3d290] registered a fraction ligated of 0.517.
TTACTTGTCGTAAGACCTTTGGATGGGTTGA [3d289] came in with a fraction ligated of 0.229.
The result for TTACTTGTCGTAAGCACTTTGGATGGGTTGA [3d287] reads 0.00788; that for TTACTTGTCGTAGACACTTTGGATGGGTTGA [3d285], 0.00592; that for TTACTTGTCTAAGACACTTTGGATGGGTTGA [3d283], 0.147.
Next, TTACTTGTGTAAGACACTTTGGATGGGTTGA [3d282]: 0.207; TTACTTTCGTAAGACACTTTGGATGGGTTGA [3d280]: 0.0128; TTATTGTCGTAAGACACTTTGGATGGGTTGA [3d278]: 0.076.
TTCACGTCGTAAGACACTTTGGATGGGTTGA [3d336]: the fraction ligated turned out to be 0.658.
Next, TTCACTGCGTAAGACACTTTGGATGGGTTGA [3d338]: 0.782; TTCACTGTCGAAGACACTTTGGATGGGTTGA [3d341]: 0.77.
Next, TTCACTGTCGTAAACACTTTGGATGGGTTGA [3d343]: 0.8.
The sequence TTCACTGTCGTAAGAACTTTGGATGGGTTGA [3d345] displayed a fraction ligated of 0.788.
Next, TTCACTGTCGTAAGACACTTGGATGGGTTGA [3d348]: 0.762; TTCACTGTCGTAAGACACTTTGATGGGTTGA [3d349]: 0.653.
Sequence TTCACTGTCGTAAGACACTTTGGAGGGTTGA [3d351] gave a fraction ligated of 0.327.
TTCACTGTCGTAAGACACTTTGGATGGGTTA [3d353] yielded a fraction ligated of 0.195.
Sequence TTCACTGTCGTAAGACACTTTGGATGGGTTG [3d354] registered a fraction ligated of 0.726.
Next, TTCACTGTCGTAAGACACTTTGGATGGGTTGA [2d28]: 0.795; TTCACTGTCGTAAGACACTTTGGATGGTTGA [3d352]: 0.498; TTCACTGTCGTAAGACACTTTGGTGGGTTGA [3d350]: 0.0639.
As to TTCACTGTCGTAAGACATTTGGATGGGTTGA [3d347], the fraction ligated stood at 0.755.
The sequence TTCACTGTCGTAAGACCTTTGGATGGGTTGA [3d346] yielded a fraction ligated of 0.795.
The result for TTCACTGTCGTAAGCACTTTGGATGGGTTGA [3d344] reads 0.8; that for TTCACTGTCGTAGACACTTTGGATGGGTTGA [3d342], 0.775; that for TTCACTGTCTAAGACACTTTGGATGGGTTGA [3d340], 0.774.
In the case of TTCACTGTGTAAGACACTTTGGATGGGTTGA [3d339], the fraction ligated is 0.766.

Source of the values: the supplement of paper PMC6755084.
